Experimental findings from the supplement of paper PMC7877785 are described below.

The nature of this data set: self-splicing fitness, log relative to wild type (ln ratio); higher = more splicing; Tetrahymena group I intron in knt gene, E. coli kanamycin selection, DiMSum; sequences stand for … in CUCUCU…GGAGGGAAAAGUUAUCAGGCAUGCACCUGGUAGCUAGUCUUUAAACCAAUAGAUUGCAUCGGUUUAAAAGGCAAGACCGUCAAAUUGCGGGAAAGGGGUCAACAGCCGUUCAGUACCAAGUCUCAGGGGAAACUUUGAGAUGGCCUUGCAAAGGGUAUGGUAAUAAGCUGACGGACAUGGUCCUAACCACGCAGCCAAGUCCUAAGUCAACAGAUCUUCUGUUGAUAUGGAUGCAGUUCACAGACUAAAUGUCGGUCGGGGAAGAUGUAUUCUUCUCAUAAGAUAUAGUCGGACCUCUCCUUAAUGGGAGCUAGCGGAUGAAGUGAUGCAACACUGGAGCCGCUGGGAACUAAUUUGUAUGCGAAAGUAUAUUGAUUAGUUUUGGAGUACUCGUGGUCG
Put shortly: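 Pooled colonies went to amplicon sequencing on an Illumina HiSeq 2500 after six replicate transformations. The plates were LB agar with 100 μg/mL carbenicillin, 50 μM IPTG and 0.2% rhamnose, with or without 25 μg/mL kanamycin, incubated overnight at 37°C or 30°C. The E. coli BL21(DE3) library had all eight P1ex-region intron nucleotides randomised, the intron placed in the knt kanamycin-resistance gene on pET-22b(+). DiMSum fitness is the error-weighted combination of replicate fold changes, kanamycin against none, normalised to wild type.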

± gives the uncertainty stated by the source.

Regarding UGACAGCAAUAUUACGAUGC, the “self-splicing fitness (ln)” value runs as follows: (30 °C) -3.94 ± 0.28; (37 °C) -2.72 ± 0.28.
On the same counts, the results for UGACAGCAAUAUUACGAUUG are -0.875 ± 0.061 and -0.525 ± 0.067.
Taken in the same sequence, the figures for UGACAGCAAUAUUACGCAAU were -2.38 ± 0.12 and -1.84 ± 0.16.
Take UGACAGCAAUAUUACGCACG: the “self-splicing fitness (ln)” value is -0.996 ± 0.093 (30 °C) and -0.312 ± 0.14 (37 °C).
Taken in the same sequence, the figures for UGACAGCAAUAUUACGCCCA were 0.217 ± 0.12 and 0.269 ± 0.16.
Taken in the same sequence, the figures for UGACAGCAAUAUUACGCCCG were -0.421 ± 0.12 and 0.601 ± 0.2.
On to UGACAGCAAUAUUACGCCGA, for which the “self-splicing fitness (ln)” value (30 °C) was -1.44 ± 0.17 and the “self-splicing fitness (ln)” value (37 °C) is -0.0813 ± 0.17.
On to UGACAGCAAUAUUACGCGCC, for which the “self-splicing fitness (ln)” value is, setting by setting: (30 °C) -1.63 ± 0.12; (37 °C) -0.153 ± 0.15.
Taken in the same sequence, the figures for UGACAGCAAUAUUACGCGCG were -1.15 ± 0.1 and -0.132 ± 0.11.
Taken in the same sequence, the figures for UGACAGCAAUAUUACGCUGC were -4.45 ± 0.25 and -2.65 ± 0.18.
With UGACAGCAAUAUUACGGAAG, the “self-splicing fitness (ln)” value was -2.29 ± 0.11 (30 °C) and -1.19 ± 0.12 (37 °C).
As for UGACAGCAAUAUUACGGACA, the “self-splicing fitness (ln)” value was -0.474 ± 0.08 (30 °C) and 0.431 ± 0.12 (37 °C).
Take UGACAGCAAUAUUACGGCAU: the “self-splicing fitness (ln)” value runs as follows: (30 °C) -1.88 ± 0.073; (37 °C) -0.478 ± 0.087.
Taken in the same sequence, the figures for UGACAGCAAUAUUACGGCGU were -2.71 ± 0.15 and -1.67 ± 0.16.
Consider UGACAGCAAUAUUACGGGAG, for which the “self-splicing fitness (ln)” value is, setting by setting: (30 °C) -1.59 ± 0.062; (37 °C) -0.0844 ± 0.061.
Taken in the same sequence, the figures for UGACAGCAAUAUUACGGGCA were -0.0919 ± 0.079 and 0.689 ± 0.093.
Taken in the same sequence, the figures for UGACAGCAAUAUUACGGGCG were -0.223 ± 0.1 and 0.3 ± 0.11.
UGACAGCAAUAUUACGGGUG: the “self-splicing fitness (ln)” value is -0.383 ± 0.052 (30 °C) and -0.732 ± 0.074 (37 °C).
On the same counts, the results for UGACAGCAAUAUUACGGUAC are -4.6 ± 0.36 and -2.85 ± 0.38.
As for UGACAGCAAUAUUACGGUCU, the “self-splicing fitness (ln)” value (30 °C) is -1.58 ± 0.065 and the “self-splicing fitness (ln)” value (37 °C) is -0.946 ± 0.072.
Taken in the same sequence, the figures for UGACAGCAAUAUUACGUACA were -0.21 ± 0.087 and 0.281 ± 0.12.
On the same counts, the results for UGACAGCAAUAUUACGUACU are -0.423 ± 0.064 and 0.165 ± 0.085.
Taken in the same sequence, the figures for UGACAGCAAUAUUACGUAGC were -4.08 ± 0.29 and -2.28 ± 0.28.
Consider UGACAGCAAUAUUACGUCAA, for which the “self-splicing fitness (ln)” value is, setting by setting: (30 °C) -2.37 ± 0.18; (37 °C) -0.896 ± 0.11.
Turning to UGACAGCAAUAUUACGUCCA, the “self-splicing fitness (ln)” value runs as follows: (30 °C) -0.629 ± 0.061; (37 °C) 0.245 ± 0.1.
Consider UGAGAGCAAUAUUACGACUU, for which the “self-splicing fitness (ln)” value is, setting by setting: (30 °C) -3.87 ± 0.22; (37 °C) -2.31 ± 0.18.
With UGAGAGCAAUAUUACGAGUC, the “self-splicing fitness (ln)” value (37 °C) is -3.22 ± 0.47.
Regarding UGAGAGCAAUAUUACGCAUA, the “self-splicing fitness (ln)” value (30 °C) is -3.24 ± 0.44.
Same read-out and setting: in the case of UGAGAGCAAUAUUACGCCGA it was -1.96 ± 0.36.
On to UGAGAGCAAUAUUACGCGAG, for which the “self-splicing fitness (ln)” value is -3.56 ± 0.37 (30 °C) and -2.34 ± 0.22 (37 °C).
In the case of UGAGAGCAAUAUUACGCGCC, the “self-splicing fitness (ln)” value (30 °C) was -1.44 ± 0.33 and the “self-splicing fitness (ln)” value (37 °C) was -1.09 ± 0.47.
Taken in the same sequence, the figures for UGAGAGCAAUAUUACGCGUA were -2.26 ± 0.26 and -2.4 ± 0.31.
For UGAGAGCAAUAUUACGGAAA, the “self-splicing fitness (ln)” value (37 °C) is -1.92 ± 0.39.
Turning to UGAGAGCAAUAUUACGGAAU, under “37 °C”, the “self-splicing fitness (ln)” value was 1.01 ± 0.35.
In the case of UGAGAGCAAUAUUACGGAGC, the “self-splicing fitness (ln)” value reads like this: (30 °C) -2.21 ± 0.18; (37 °C) -1.94 ± 0.19.
